In patent US20250057968A1, “ANTI-DLL3 ANTIBODY AND PHARMACEUTICAL USE THEREOF, AND ANTIBODY-DRUG CONJUGATE CONTAINING ANTI-DLL3 ANTIBODY” (Jiangsu Hengrui Pharmaceuticals Co., Ltd., priority 2021, published 2025):

How the values were obtained:
[1] = biological target: T1, hDLL3(ECD)-strep twin, biotinylated (human, UniProt Q9NYJ7 27-492, biotinylated (site not stated)); experiment: ELISA, biotinylated antigen on streptavidin plate
T1 construct: also called Biotinylated DLL3 antigen; Biotinylated DLL3-Strep
Description: Streptavidin (abcam, ab136200, 1 μg/mL) was plated at 100 μL/well, and the plate was incubated overnight at 4° C. The plate was washed 3 times with 250 μL of PBST solution (PBS containing 0.1% Tween 20) per well. The plate was blocked with 250 μL of 5% milk per well at 37° C. for 2 h. The plate was washed 3 times with 250 μL of PBST solution per well. Biotinylated DLL3 antigen (1 μg/mL) (SEQ ID NO: 9) was added, and the plate was incubated at 37° C. for 1 h. The plate was washed 3 times with 250 μL of PBST solution per well. […] The plate was washed 6 times with 250 μL of PBST solution per well. […] The plate was washed 6 times with 250 μL of PBST solution per well. TMB (KPL, 5120-0077) substrate solution was added at 100 μL/well, and color development was allowed at room temperature for 5-10 min. 1 M H₂SO₄ was added at 100 μL/well to stop the color development, and microplate reader (Molecular Devices, VERSA max) readings at 450 nm were taken.

[2] = biological target: T2, human DLL3 (ACRO, DLL3-H52H4) (human, UniProt Q9NYJ7 27-479); experiment: SPR (Biacore 8K), antibody captured on Protein A chip, 1:1 fit
T2 construct: bought antigen of the Biacore assay; construct not described
T2 sequence (looked up): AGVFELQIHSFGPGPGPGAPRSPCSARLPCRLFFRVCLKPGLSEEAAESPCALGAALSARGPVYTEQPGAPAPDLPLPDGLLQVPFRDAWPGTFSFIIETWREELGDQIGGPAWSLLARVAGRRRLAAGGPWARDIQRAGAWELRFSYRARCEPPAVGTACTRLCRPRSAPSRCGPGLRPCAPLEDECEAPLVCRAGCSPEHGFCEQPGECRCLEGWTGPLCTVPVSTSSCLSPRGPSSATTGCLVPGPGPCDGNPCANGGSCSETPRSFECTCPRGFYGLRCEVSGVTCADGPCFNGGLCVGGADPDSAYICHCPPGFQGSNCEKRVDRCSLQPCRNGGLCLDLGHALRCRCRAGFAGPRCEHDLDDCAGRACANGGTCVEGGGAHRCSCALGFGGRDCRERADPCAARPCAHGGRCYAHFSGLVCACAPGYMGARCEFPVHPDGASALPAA
Source text: (§1) Test antibodies were affinity-captured with a Protein A biosensor chip (Cat. #29127556, Cytiva) for 18 seconds, and then the antigens human DLL3 (ACRO, DLL3-H52H4), cynomolgus monkey DLL3 (KACTUS, DLL-RM103), and mouse DLL3 (KACTUS, DLL-MM103) were allowed to flow over the surface of the chip for 180 seconds, followed by 600 seconds of dissociation. Reaction signals were detected in real time using a Biacore 8K (Cytiva) instrument to obtain association and dissociation curves. After the dissociation in each experimental cycle, the biosensor chip was washed and regenerated with a 10 mM glycine-hydrochloric acid solution (pH 1.5) (Cat. #BR-1003-54, Cytiva). A 1:1 model was fit to the data. The results are shown in Table 12-1, Table 12-2, and Table 12-3.

[3] = biological target: T3, mouse DLL3 (KACTUS, DLL-MM103) (mouse, UniProt O88516 33-490, limits assumed); experiment: as above
T3 construct: bought antigen of the Biacore assay; construct not described
T3 sequence (looked up): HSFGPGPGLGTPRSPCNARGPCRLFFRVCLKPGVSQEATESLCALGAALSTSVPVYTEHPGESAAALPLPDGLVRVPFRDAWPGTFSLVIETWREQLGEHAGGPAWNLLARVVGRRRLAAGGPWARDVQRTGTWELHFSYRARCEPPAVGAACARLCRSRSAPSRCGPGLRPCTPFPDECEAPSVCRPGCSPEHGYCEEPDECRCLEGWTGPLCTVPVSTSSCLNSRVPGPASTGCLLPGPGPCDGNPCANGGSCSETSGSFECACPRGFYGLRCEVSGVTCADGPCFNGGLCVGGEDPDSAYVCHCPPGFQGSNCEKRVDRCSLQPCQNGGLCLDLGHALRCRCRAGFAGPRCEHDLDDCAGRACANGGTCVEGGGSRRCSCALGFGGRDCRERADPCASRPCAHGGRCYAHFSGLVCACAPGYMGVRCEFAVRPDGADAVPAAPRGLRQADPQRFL
Source text: as §1

B1: Hu100 (antibody, human IgG1, kappa, V domains shown)
VH: EVQLVESGGGLVKPGGSLRLSCAASGFTFSDSGMHWIRQAPGKGLEWVSYISSGSSTIHYADTVKGRFTISRDNAKNSLYLQMNSLRAEDTAVYYCASPLYYYGRSYNAVAYWGQGTTVTVSS
VL: DIQMTQSPSSLSASVGDRVTITCHASQNINVWLSWYQQKPGKVPKLLIYKASDLHTGVPSRFSGSGSGTDFTLTISSLQPEDVATYYCQQGQSYPLTFGGGTKVEIKR
notes: also called hAb100L1H1
- EC50 [1]: 0.05 nM
- Kd [2]: 0.436 nM
- koff [2]: 0.000374 s⁻¹
- kon [2]: 858000 M⁻¹ s⁻¹

B2: Hu6 (antibody, human IgG1, kappa, V domains shown)
VH: EVQLVQSGSELKKPGASVKVSCKASGYTFTDYYMNWVRQAPGQGLEWMGIINPYSGVTIYNHKFKGRFALSVDKSSNTAYLQISSLKAEDTAVYYCARQDSLLDYAMDYWGQGTTVTVSS
VL: DIQMTQSPSSLSASVGDRVTITCHASQGISGNMGWLQQKPGKAPKGLIYHGANLEDGVPSRFSGSGSGADYTLTISSLQPEDFADYYCVQYAQFPYTFGGGTKVEIKR
notes: also called hAb6L4H12
- EC50 [1]: 0.04 nM
- Kd [3]: 6.52 nM
